# Assay results reported in IntAct's records for PubMed 35512704.
# B1: Speckle-type POZ protein (Homo sapiens), O43791 (parent)
# chain: MSRVPSPPPPAEMSSGPVAESWCYTQIKVVKFSYMWTINNFSFCREEMGEVIKSSTFSSGANDKLKWCLRVNPKGLDEESKDYLSLYLLLVSCPKSEVRAKFKFSILNAKGEETKAMESQRAYRFVQGKDWGFKKFIRRDFLLDEANGLLPDDKLTLFCEVSVVQDSVNISGQNTMNMVKVPECRLADELGGLWENSRFTDCCLCVAGQEFQAHKAILAARSPVFSAMFEHEMEESKKNRVEINDVEPEVFKEMMCFIYTGKAPNLDKMADDLLAAADKYALERLKVMCEDALCSNLSVENAAEILILADLHSADQLKTQAVDFINYHASDVLETSGWKSMVVSHPHLVAEAYRSLASAQCPFLGPPRKRLKQS
# partner: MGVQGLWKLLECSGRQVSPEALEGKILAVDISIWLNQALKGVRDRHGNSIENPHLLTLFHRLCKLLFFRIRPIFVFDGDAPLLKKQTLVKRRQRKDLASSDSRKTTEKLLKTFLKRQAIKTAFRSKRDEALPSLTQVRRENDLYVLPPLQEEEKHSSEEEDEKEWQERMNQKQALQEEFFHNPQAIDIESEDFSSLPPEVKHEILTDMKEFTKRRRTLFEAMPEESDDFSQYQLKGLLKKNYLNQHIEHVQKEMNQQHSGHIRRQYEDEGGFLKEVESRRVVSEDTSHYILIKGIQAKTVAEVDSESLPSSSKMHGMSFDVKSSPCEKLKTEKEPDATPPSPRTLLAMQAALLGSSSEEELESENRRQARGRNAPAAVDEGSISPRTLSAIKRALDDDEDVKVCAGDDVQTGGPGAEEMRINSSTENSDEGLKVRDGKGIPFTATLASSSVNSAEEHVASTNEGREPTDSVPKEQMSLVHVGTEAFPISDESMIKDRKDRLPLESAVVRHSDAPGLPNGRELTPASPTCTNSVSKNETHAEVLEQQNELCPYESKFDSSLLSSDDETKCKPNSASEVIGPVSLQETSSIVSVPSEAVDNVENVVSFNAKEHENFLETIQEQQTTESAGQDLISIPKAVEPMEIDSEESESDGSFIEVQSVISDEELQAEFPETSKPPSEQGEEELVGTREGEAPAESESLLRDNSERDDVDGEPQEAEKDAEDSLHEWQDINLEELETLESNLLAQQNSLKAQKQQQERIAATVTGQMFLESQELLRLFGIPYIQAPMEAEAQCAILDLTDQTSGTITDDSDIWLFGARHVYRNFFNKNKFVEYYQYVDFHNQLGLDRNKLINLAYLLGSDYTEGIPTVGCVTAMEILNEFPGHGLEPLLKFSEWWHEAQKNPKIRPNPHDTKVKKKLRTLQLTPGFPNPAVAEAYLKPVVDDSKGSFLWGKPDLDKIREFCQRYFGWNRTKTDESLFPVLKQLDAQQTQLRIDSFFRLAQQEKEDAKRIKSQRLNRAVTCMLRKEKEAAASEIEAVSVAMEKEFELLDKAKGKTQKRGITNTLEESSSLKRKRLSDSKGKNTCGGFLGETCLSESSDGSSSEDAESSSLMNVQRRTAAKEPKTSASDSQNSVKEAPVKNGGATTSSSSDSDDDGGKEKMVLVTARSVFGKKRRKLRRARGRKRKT
# B2: Mothers against decapentaplegic homolog 4 (Homo sapiens), Q13485 (parent)
# chain: MDNMSITNTPTSNDACLSIVHSLMCHRQGGESETFAKRAIESLVKKLKEKKDELDSLITAITTNGAHPSKCVTIQRTLDGRLQVAGRKGFPHVIYARLWRWPDLHKNELKHVKYCQYAFDLKCDSVCVNPYHYERVVSPGIDLSGLTLQSNAPSSMMVKDEYVHDFEGQPSLSTEGHSIQTIQHPPSNRASTETYSTPALLAPSESNATSTANFPNIPVASTSQPASILGGSHSEGLLQIASGPQPGQQQNGFTGQPATYHHNSTTTWTGSRTAPYTPNLPHHQNGHLQHHPPMPPHPGHYWPVHNELAFQPPISNHPAPEYWCSIAYFEMDVQVGETFKVPSSCPIVTVDGYVDPSGGDRFCLGQLSNVHRTEAIERARLHIGKGVQLECKGEGDVWVRCLSDHAVFVQSYYLDREAGRAPGDAVHKIYPSAYIKVFDLRQCHRQMQQQAATAQAAAAAQAAAVAGNIPGPGSVGGIAPAISLSAAAGIGVDDLRRLCILRMSFVKGWGPDYPRQSIKETPCWIEIHLHRALQLLDEVLHTMPIADPQPLD
# partner: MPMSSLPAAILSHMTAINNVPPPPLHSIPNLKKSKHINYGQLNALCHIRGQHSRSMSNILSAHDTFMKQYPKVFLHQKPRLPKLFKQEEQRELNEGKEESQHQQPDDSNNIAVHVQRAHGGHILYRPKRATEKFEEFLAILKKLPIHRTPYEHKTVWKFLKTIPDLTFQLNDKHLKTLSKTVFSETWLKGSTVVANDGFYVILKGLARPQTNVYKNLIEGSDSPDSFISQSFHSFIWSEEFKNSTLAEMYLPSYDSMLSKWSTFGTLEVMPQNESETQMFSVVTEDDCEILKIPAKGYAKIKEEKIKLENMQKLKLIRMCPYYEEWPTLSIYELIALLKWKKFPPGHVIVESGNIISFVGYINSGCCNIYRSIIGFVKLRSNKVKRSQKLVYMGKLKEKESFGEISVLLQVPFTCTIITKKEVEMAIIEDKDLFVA
# B3: Mothers against decapentaplegic homolog 4 (Homo sapiens), Q13485 (parent)
# chain: B2 chain
# partner: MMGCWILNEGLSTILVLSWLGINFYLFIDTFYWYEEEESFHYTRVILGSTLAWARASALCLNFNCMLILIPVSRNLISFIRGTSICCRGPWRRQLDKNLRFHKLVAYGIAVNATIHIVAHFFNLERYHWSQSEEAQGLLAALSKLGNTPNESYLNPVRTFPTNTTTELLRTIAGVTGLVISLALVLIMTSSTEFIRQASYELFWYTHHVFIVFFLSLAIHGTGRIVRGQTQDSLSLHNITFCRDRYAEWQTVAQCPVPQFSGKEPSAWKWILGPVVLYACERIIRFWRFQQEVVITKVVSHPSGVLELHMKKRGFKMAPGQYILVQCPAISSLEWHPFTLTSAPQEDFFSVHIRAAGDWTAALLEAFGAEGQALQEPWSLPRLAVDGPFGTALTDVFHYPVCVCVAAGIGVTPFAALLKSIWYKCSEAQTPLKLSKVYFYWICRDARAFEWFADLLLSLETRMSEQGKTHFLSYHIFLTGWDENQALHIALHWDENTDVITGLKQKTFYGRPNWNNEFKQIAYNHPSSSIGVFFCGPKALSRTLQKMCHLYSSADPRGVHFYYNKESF
# B4: Mothers against decapentaplegic homolog 4 (Homo sapiens), Q13485 (parent)
# chain: B2 chain
# partner: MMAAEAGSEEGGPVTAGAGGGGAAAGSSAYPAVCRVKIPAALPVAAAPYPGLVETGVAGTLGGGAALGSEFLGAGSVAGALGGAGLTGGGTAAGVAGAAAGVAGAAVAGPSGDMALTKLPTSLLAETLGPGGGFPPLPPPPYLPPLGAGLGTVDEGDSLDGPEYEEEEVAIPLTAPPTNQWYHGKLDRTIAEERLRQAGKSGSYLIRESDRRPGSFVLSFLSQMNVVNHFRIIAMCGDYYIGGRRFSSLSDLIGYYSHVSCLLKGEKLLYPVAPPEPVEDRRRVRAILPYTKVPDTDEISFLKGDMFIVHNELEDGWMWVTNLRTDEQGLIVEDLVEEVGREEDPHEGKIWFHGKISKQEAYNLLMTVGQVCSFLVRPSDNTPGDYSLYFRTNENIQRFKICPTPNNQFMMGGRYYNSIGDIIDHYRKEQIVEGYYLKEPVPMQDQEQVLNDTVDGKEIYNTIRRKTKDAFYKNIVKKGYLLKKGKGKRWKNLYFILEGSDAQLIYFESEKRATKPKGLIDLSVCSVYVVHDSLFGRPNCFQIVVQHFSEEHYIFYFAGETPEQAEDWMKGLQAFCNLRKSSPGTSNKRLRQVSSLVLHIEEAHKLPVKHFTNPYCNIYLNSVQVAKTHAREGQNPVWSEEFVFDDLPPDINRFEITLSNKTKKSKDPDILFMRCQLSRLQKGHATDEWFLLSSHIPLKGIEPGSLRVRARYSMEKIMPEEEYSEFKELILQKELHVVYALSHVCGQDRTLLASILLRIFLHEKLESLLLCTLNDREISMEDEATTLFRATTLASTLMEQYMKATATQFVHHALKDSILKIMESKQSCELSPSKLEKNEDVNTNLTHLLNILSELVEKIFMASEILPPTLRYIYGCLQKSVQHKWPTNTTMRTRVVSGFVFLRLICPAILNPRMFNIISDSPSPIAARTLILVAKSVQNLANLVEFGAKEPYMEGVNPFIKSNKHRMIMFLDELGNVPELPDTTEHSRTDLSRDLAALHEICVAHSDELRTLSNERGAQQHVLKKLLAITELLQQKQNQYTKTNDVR
# B5: Mothers against decapentaplegic homolog 4 (Homo sapiens), Q13485 (parent)
# chain: B2 chain
# partner: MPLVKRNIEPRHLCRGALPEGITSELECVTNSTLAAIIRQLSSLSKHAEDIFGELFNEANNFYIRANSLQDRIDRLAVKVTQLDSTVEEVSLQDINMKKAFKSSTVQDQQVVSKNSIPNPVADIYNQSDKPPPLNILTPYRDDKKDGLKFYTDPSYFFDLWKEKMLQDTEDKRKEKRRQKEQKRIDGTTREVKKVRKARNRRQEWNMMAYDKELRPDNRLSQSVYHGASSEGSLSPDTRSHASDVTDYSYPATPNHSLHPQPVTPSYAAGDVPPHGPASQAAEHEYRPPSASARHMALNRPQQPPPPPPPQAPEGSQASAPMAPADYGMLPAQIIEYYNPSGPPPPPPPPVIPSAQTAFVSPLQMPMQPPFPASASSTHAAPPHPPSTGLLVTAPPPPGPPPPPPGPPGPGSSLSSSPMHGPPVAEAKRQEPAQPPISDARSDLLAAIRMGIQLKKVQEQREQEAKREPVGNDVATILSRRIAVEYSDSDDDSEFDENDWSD
# Variants of: B1
# Details: with ercc5_human ERCC5, P28715
row,effect of a mutation on the interaction,Variant
1,with no effect,Y87C

# Variants of: B1
# Details: with ercc5_human ERCC5, P28715
# Remark: another data set of the same source
row,effect of a mutation on the interaction,Variant
1,with no effect,F102C

# Variants of: B1
# Details: with ercc5_human ERCC5, P28715
# Remark: another data set of the same source
row,effect of a mutation on the interaction,Variant
1,with no effect,F133V

# Variants of: B1
# Details: with ercc5_human ERCC5, P28715
# Remark: another data set of the same source
row,effect of a mutation on the interaction,Variant
1,with no effect,F133L

# Variants of: B2
# Details: with cnbd1_human CNBD1, Q8NA66
row,effect of a mutation on the interaction,Variant
1,with no effect,R361H

# Variants of: B3
# Details: with nox3_human NOX3, Q9HBY0
row,effect of a mutation on the interaction,Variant
1,with no effect,R361H

# Variants of: B3
# Details: with nox3_human NOX3, Q9HBY0
# Remark: another data set of the same source
row,effect of a mutation on the interaction,Variant
1,with no effect,G386D

# Variants of: B4
# Details: with rasa1_human RASA1, P20936
row,effect of a mutation on the interaction,Variant
1,with no effect,R361H

# Variants of: B5
# Details: with wasf3_human WASF3, Q9UPY6
row,effect of a mutation on the interaction,Variant
1,with no effect,G386D

# Variants of: B5
# Details: with wasf3_human WASF3, Q9UPY6
# Remark: another data set of the same source
row,effect of a mutation on the interaction,Variant
1,increasing interaction strength,G386D

# Variants of: B5
# Details: with wasf3_human WASF3, Q9UPY6
# Remark: another data set of the same source
row,effect of a mutation on the interaction,Variant
1,with no effect,R361H
